37 molecules from publication PMC10786919, “Design-rules for stapled peptides with in vivo activity and their application to Mdm2/X antagonists” (Nature Communications, 2024) can be followed below.

Positions of bridges follow the written chain, without caps; N, C: chain ends. Non-standard residues stand in square brackets, D forms with d. Primed or numbered codes have the meaning given here. Trp(6-Cl) = N[C@@H](Cc1c[nH]c2cc(Cl)ccc12)C(=O)O; Lys(N3) = [N-]=[N+]=NCCCC[C@H](N)C(=O)O; R8 = C=CCCCCCC[C@@](C)(N)C(=O)O; S5 = C=CCCC[C@](C)(N)C(=O)O; Cba′ = not defined here; Aib = CC(C)(N)C(=O)O; βAla = NCCC(=O)O

First the molecules themselves.
B1: AZIDE-ATSP-7041 (E5hR) (peptide)
chain: KXLTFXXYWAQXXSAA
modifications: homo-Arg (hR) at 5; N-terminal acetyl; Lys(N3) and beta-Ala before residue 1; R8 at 4 and S5 at 11 (olefin staple); Cba at 10; C-terminal amide
B2: AZIDE-ATSP-7041 (A14hR) (peptide)
chain: KXLTFXEYWAQXXSAX
modifications: homo-Arg (hR) at 14; N-terminal acetyl; Lys(N3) and beta-Ala before residue 1; R8 at 4 and S5 at 11 (olefin staple); Cba at 10; C-terminal amide
B3: AZIDE-ATSP-7041 (L1hR) (peptide)
chain: KXXTFXEYWAQXXSAA
modifications: homo-Arg (hR) at 1; N-terminal acetyl; Lys(N3) and beta-Ala before residue 1; R8 at 4 and S5 at 11 (olefin staple); Cba at 10; C-terminal amide
B4: AZIDE-ATSP-7041 (T2hR) (peptide)
chain: KXLXFXEYWAQXXSAA
modifications: homo-Arg (hR) at 2; N-terminal acetyl; Lys(N3) and beta-Ala before residue 1; R8 at 4 and S5 at 11 (olefin staple); Cba at 10; C-terminal amide
B5: AZIDE-ATSP-7041 (A13hR) (peptide)
chain: KXLTFXEYWAQXXSXA
modifications: homo-Arg (hR) at 13; N-terminal acetyl; Lys(N3) and beta-Ala before residue 1; R8 at 4 and S5 at 11 (olefin staple); Cba at 10; C-terminal amide
B6: AZIDE-ATSP-7041 (S12hR) (peptide)
chain: KXLTFXEYWAQXXXAA
modifications: homo-Arg (hR) at 12; N-terminal acetyl; Lys(N3) and beta-Ala before residue 1; R8 at 4 and S5 at 11 (olefin staple); Cba at 10; C-terminal amide
B7: AZIDE-ATSP-7041 (Q9hR) (peptide)
chain: KXLTFXEYWAXXXSAA
modifications: homo-Arg (hR) at 9; N-terminal acetyl; Lys(N3) and beta-Ala before residue 1; R8 at 4 and S5 at 11 (olefin staple); Cba at 10; C-terminal amide

The target in the first experiment is T1, human Mdm2 1-125 (human).
T1 construct: Mdm2, human, residues 1-125; the stretch after the TEV site ENLYFQG of the fusion protein; source: E. coli BL21 (DE3) Rosetta T1R, purified (Ni-NTA, gel filtration)
T1 sequence (chain, as listed by the source): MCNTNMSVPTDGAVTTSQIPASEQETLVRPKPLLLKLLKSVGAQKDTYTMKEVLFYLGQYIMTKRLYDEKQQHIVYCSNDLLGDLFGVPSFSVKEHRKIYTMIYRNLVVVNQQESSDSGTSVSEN
Put plainly: fluorescence polarisation; competitive fluorescence anisotropy: unlabelled peptide titrated against 250 nM Mdm2 (1-125) with 50 nM FAM-labelled 12/1 peptide (FAM-…-NH2); PBS pH 7.4, 0.001% Tween-20; apparent Kd, geometric means. Particulars: both partners purified. (In fluorescence polarisation assays a small probe gives low polarisation when free and higher when bound to something large.)
With Ac-[Lys(N3)][βAla][dL]TF[R8]AY[Trp(6-Cl)]AA[Cba′][S5]S[dA]A-NH2 (staple 6-13; reading uncertain) [AZIDE-ATSP-7041 (L1 TO D-LEU, E5A, Q9A, W7 TO 6-CLTRP, A13 TO D-ALA)], the Kd worked out at 16.9 nM.
The same measure, in the same setting: to Ac-[Lys(N3)][βAla]VTF[R8]VYWVQ[Cba′][S5]SAA-NH2 (staple 6-13; reading uncertain) [AZIDE-ATSP-7041 (L1V, E5V, A8V)] belongs 122 nM.

Another experiment concerns the target T1, human Mdm2 1-125. Described as above. Particulars: both partners purified. This is another data set of the same source.
In the case of Ac-[Lys(N3)][βAla]KTF[R8]EYWAQ[Cba′][S5]SAA-NH2 (staple 6-13; reading uncertain) [AZIDE-ATSP-7041 (L1K)], the Kd was found to be 3.8 nM.
In the case of Ac-[Lys(N3)][βAla]LTF[R8]EYWAQ[Cba′][S5]KAA-NH2 (staple 6-13; reading uncertain) [AZIDE-ATSP-7041 (S12K)], the Kd came out at 39.7 nM.
Same read-out and setting: the value for Ac-[Lys(N3)][βAla]ATF[R8]EYWAQ[Cba′][S5]SAA-NH2 (staple 6-13; reading uncertain) [AZIDE-ATSP-7041 (L1A)] was 10.7 nM; that for Ac-[Lys(N3)][βAla]LTF[R8]EYWAK[Cba′][S5]SAA-NH2 (staple 6-13; reading uncertain) [AZIDE-ATSP-7041 (Q9K)] was 8.2 nM.
Same read-out and setting: the value for Ac-[Lys(N3)][βAla]LTF[R8]KYWAQ[Cba′][S5]SAA-NH2 (staple 6-13; reading uncertain) [AZIDE-ATSP-7041 (E5K)] was 115 nM; that for Ac-[Lys(N3)][βAla]LTF[R8]EYWKQ[Cba′][S5]SAA-NH2 (staple 6-13; reading uncertain) [AZIDE-ATSP-7041 (A8K)] was 11.1 nM.
For the molecule Ac-[Lys(N3)][βAla]LAF[R8]EYWAQ[Cba′][S5]SAA-NH2 (staple 6-13; reading uncertain) [AZIDE-ATSP-7041 (T2A)], the Kd is 80.5 nM.
Same read-out and setting: to Ac-[Lys(N3)][βAla]LTA[R8]EYWAQ[Cba′][S5]SAA-NH2 (staple 6-13; reading uncertain) [AZIDE-ATSP-7041 (F3A)] belongs 13200 nM; to Ac-[Lys(N3)][βAla]LKF[R8]EYWAQ[Cba′][S5]SAA-NH2 (staple 6-13; reading uncertain) [AZIDE-ATSP-7041 (T2K)], 5.4 nM.

The next experiment has as its target T1, human Mdm2 1-125. Described as above. The following applies: both partners purified. The source holds these as a separate data set.
As for Ac-[Lys(N3)][βAla]LEF[R8]EYWAQ[Cba′][S5]SAA-NH2 (staple 6-13; reading uncertain) [AZIDE-ATSP-7041 (T2E)], the Kd was 42.4 nM.
With Ac-[Lys(N3)][βAla]LTF[R8]EEWAQ[Cba′][S5]SAA-NH2 (staple 6-13; reading uncertain) [AZIDE-ATSP-7041 (Y6E)], the Kd stood at 5.1 nM.
For Ac-[Lys(N3)][βAla]LTF[R8]EYWEQ[Cba′][S5]SAA-NH2 (staple 6-13; reading uncertain) [AZIDE-ATSP-7041 (A8E)], the Kd stood at 3.2 nM.
As to Ac-[Lys(N3)][βAla]LTF[R8]EYWAE[Cba′][S5]SAA-NH2 (staple 6-13; reading uncertain) [AZIDE-ATSP-7041 (Q9E)], the Kd turned out to be 34.6 nM.
Still for that read-out and setting: the value for Ac-[Lys(N3)][βAla]LTE[R8]EYWAQ[Cba′][S5]SAA-NH2 (staple 6-13; reading uncertain) [AZIDE-ATSP-7041 (F3E)] was 11200 nM.
For the molecule Ac-[Lys(N3)][βAla]LTF[R8]EYWAQ[Cba′][S5]HAA-NH2 (staple 6-13; reading uncertain) [AZIDE-ATSP-7041 (S12H)], the Kd amounted to 4.5 nM.
Same read-out and setting: to Ac-[Lys(N3)][βAla]LHF[R8]EYWAQ[Cba′][S5]SAA-NH2 (staple 6-13; reading uncertain) [AZIDE-ATSP-7041 (T2H)] belongs 64.2 nM; to Ac-[Lys(N3)][βAla]LTF[R8]EYWAQ[Cba′][S5]S[Aib]A-NH2 (staple 6-13; reading uncertain) [AZIDE-ATSP-7041 (A13 TO AIB)], 15.2 nM; to Ac-[Lys(N3)][βAla]LTF[R8]EYWAQE[S5]SAA-NH2 (staple 6-13) [AZIDE-ATSP-7041 (CBA10E)], 312 nM.
Ac-[Lys(N3)][βAla]LTF[R8]EYEAQ[Cba′][S5]SAA-NH2 (staple 6-13; reading uncertain) [AZIDE-ATSP-7041 (W7E)]: the Kd is greater than 101000 nM.
Still for that read-out and setting: to Ac-[Lys(N3)][βAla]LTF[R8]HYWAQ[Cba′][S5]SAA-NH2 (staple 6-13; reading uncertain) [AZIDE-ATSP-7041 (E5H)] belongs 21.1 nM; to Ac-[Lys(N3)][βAla]HTF[R8]EYWAQ[Cba′][S5]SAA-NH2 (staple 6-13; reading uncertain) [AZIDE-ATSP-7041 (L1H)], 0.7 nM; to Ac-[Lys(N3)][βAla]LTF[R8]EYWAH[Cba′][S5]SAA-NH2 (staple 6-13; reading uncertain) [AZIDE-ATSP-7041 (Q9H)], 9.6 nM.

A further experiment addresses T1, human Mdm2 1-125. The description is as above. The following applies: both partners purified. This is another data set of the same source.
On to B1, for which the Kd came to 35.5 nM.
With B2, the Kd was determined as 8.6 nM.
In the case of Ac-[Lys(N3)][βAla]LTF[R8]EYWAR[Cba′][S5]SAA-NH2 (staple 6-13; reading uncertain) [AZIDE-ATSP-7041 (Q9R)], the Kd was found to be 45.9 nM.
For B3, the Kd came to 8.6 nM.
With Ac-[Lys(N3)][βAla]LTF[R8]EYWAQ[Cba′][S5]RAA-NH2 (staple 6-13; reading uncertain) [AZIDE-ATSP-7041 (S12R)], the Kd turned out to be 78.7 nM.
For the molecule Ac-[Lys(N3)][βAla]LTF[R8]EYWRQ[Cba′][S5]SAA-NH2 (staple 6-13; reading uncertain) [AZIDE-ATSP-7041 (A8R)], the Kd was 69.4 nM.
On to Ac-[Lys(N3)][βAla]LRF[R8]EYWAQ[Cba′][S5]SAA-NH2 (staple 6-13; reading uncertain) [AZIDE-ATSP-7041 (T2R)], for which the Kd was determined as 30.6 nM.
The same measure, in the same setting: to B4 belongs 2.8 nM; to B5, 42.5 nM.
Take Ac-[Lys(N3)][βAla]RTF[R8]EYWAQ[Cba′][S5]SAA-NH2 (staple 6-13; reading uncertain) [AZIDE-ATSP-7041 (L1R)]: the Kd came out at 62.9 nM.
As to B6, the Kd was 5 nM.
On to B7, for which the Kd was 28.5 nM.
Still for that read-out and setting: to Ac-[Lys(N3)][βAla]LTF[R8]RYWAQ[Cba′][S5]SAA-NH2 (staple 6-13; reading uncertain) [AZIDE-ATSP-7041 (E5R)] belongs 33 nM.
